The record followed here is patent publication US20030113774A1.

For assay [1], the target named is pGal4-AD-SV40 (control plasmid, SV40 protein fused to Gal4-AD) (UniProt P03070). Briefly: yeast two-hybrid, quantitative liquid β-galactosidase assay (positive control pair).
For assay [2], the target named is pGal4-AD-p53-1 (p53 clone 1 from the mouse embryonic cDNA library, fused to Gal4-AD) (mouse) (UniProt P02340). Briefly: yeast two-hybrid, quantitative liquid β-galactosidase assay.
Assay [3] addresses pGal4-AD-p53-2 (p53 clone 2 from the mouse embryonic cDNA library, fused to Gal4-AD) (mouse) (UniProt P02340). The assay is described as above.

Chain of UniProt P03070 (P03070 84-708): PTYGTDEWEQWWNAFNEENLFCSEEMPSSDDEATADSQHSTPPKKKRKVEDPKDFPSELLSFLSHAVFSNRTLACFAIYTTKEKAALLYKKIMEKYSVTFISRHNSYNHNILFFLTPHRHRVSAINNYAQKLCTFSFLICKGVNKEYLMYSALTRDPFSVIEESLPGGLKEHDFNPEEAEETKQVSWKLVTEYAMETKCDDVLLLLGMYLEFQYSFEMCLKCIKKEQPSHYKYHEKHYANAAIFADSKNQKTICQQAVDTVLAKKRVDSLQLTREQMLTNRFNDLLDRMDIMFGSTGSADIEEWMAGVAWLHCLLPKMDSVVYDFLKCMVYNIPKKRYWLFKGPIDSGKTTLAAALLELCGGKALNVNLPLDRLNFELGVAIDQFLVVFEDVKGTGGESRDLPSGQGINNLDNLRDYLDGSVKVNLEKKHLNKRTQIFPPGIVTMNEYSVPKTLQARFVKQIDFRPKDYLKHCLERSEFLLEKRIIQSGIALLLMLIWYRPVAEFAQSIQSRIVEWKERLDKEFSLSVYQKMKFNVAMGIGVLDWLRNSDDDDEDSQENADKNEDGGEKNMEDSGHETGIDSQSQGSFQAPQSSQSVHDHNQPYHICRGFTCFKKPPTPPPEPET

In turn, “pGal4-BD-p53 (control plasmid, p53 fused to the Gal4 binding domain) (from UniProt P04386 1-147)” gave a β-galactosidase in assay [1] of 65.3 nmol/min/mg.
For the substance “pGal4-BD-p40 bait fusion protein comprised of the Gal4 binding domain and a p40 protein (from UniProt P04386 1-147)”, the figures for the β-galactosidase in assay [2] and in assay [3] were 33.6 nmol/min/mg and 31.8 nmol/min/mg, respectively.
